B1: N-terminally 3xFLAG-tagged LarA [C. crescentus] / Lon, endogenous [C. crescentus (endogenous in WT cells)] (parent complex)
chain 1: MTPSTQHSRPLTSEAFAALGAPALVYVRPIKAAEILADAPEGVEDLDLSPDQTLYAVCRADGERLAVLIDRDTAIAAALAHELAPVSVH
chain 2: MSELRTLPVLPLRDIVVFPHMVVPLFVGRDKSVRALEEVMRGDKQILLVTQKNSADDDPAPGDIFEVGVLATVLQLLKLPDGTVKVLVEGKARAAVVSFTDQESYYEAQIGEVSEDDGAGPEAEALSRAVVEQFENYVKLNKKVPPEALASIPQIAEPGKLADSIAAHLSVKIGDKQNLLEIFDVVKRLEKVFALMEGEISVLQVEKKIRSRVKRQMEKTQREYYLNEQMKAIQRELGDPDDARDELIDLEKRIKKTKLSKEARTKAESELKKLRNMSPMSAESTVVRNYLDWLLSIPWGKAKTKKIDLVESEGILDADHYGLEKVKERILEYLAVQARTNSLKGPILCLVGPPGVGKTSLGKSIAKATGREFVRMSLGGVRDEAEIRGHRRTYIGSMPGKVVQSMKKAKTTNAFVLLDEIDKMGSDYRGDPASALLEVLDPSQNSTFGDHYLEVDYDLSQVMFVTTANSLNMPQPLLDRMEIIRIPGYTEDEKLEIAKRHILPKLAKDHGLKPAEFIVPDKAIRDLIRYYTREAGVRSLERELGALARKTVRDLAREKVASITIDDERLAKYAGVKKYRYGETDEVDQVGIVTGLAWTEFGGDILTIEAVKMPGKGRMQITGNLKDVMKESIAAANSYVRSRALQFGIKPPVFEKTDVHIHVPDGATPKDGPSAGIAMALAMVSVLTGIPIRKDIAMTGEITLRGRVTAIGGLKEKLLAALRSGVKTVLIPQENEKDLADVPQTVKDGLEIIPVSTVDEVLKHALTGPLTPVEWNEAEEPITTSAKKDDGDSDAMLTH

In this assay the parent is B1. Briefly: co-immunoprecipitation (α-FLAG IP, anti-Lon immunoblot quantified); WT cells, Pxyl-3xFLAG-larA variants induced one hour with xylose prior to cell lysis and IP; n = 3; parent: 4.5; read off a plot. A general note: Immunoblotting shows a protein as a band on a membrane.
In the case of chain 1 MTPSTQHSRPLTSEAFAALGAPALVYVRPIKAAEILADAPEGVEDLDLSPDQTLYAVCRADGERLAVLIDRDTAIAAALAHELAPASAH [chain 1 V86A, chain 1 V88A], the response is ~1.7 relative Lon level (vs VC = 1). Take chain 1 MTPSTQHSRPLTSEAFAALGAPALVYVRPIKAAEILADAPEGVEDLDLSPDQTLYAVCRADGERLAVLIDRDTAIAAALAHELAPVSDD [chain 1 V88D, chain 1 H89D]: the response is ~1 relative Lon level (vs VC = 1).
